B1: 266 (protein)
chain: MTTRTRILTAFLSLLAANACAADAAPAAPHTVVLRAARMFDGASGKLVDHPQLTIVGNKIVRIAQGDKAEVPAGAEVVDLGDATLLPGFIDAHVHLSGQSSDNWYGRFFDNMMRFPAEQALYGAYYARITLEAGFTSVRDVGSTDWVALGLRNAIDAGKVPGPRMLVSNYAVGSTGGHADQDPIPPHKLPLAGPLQGVCNGPEECRAAVRYQIKYGANVIKFMPSGGVLSLSDPVDAPELSQDEMNAVIGESHAWGRKVAAHAHGDKAAKMAVAAGVDSIEHGSFIEDDTLRAMKAKNVYLVPTISAIAHVEEKIGTFPPVIAEKGRAAAAHLRQTFRHAVQIGVPIALGTDAGVGAHGSNAREFRYMVENGLTPAQALLAGTANAARLLGTFDRVGTLEAGKLADVVAVPGNPIADITVTERPLFVMKDGVVVRRDAVR
modifications: exemplary polypeptide
B2: 99 (protein)
chain: B1 chain with R107D, F109V
modifications: exemplary polypeptide
B3: 129 (protein)
chain: B1 chain with S100C, R107D, T317C
modifications: exemplary polypeptide
B4: 302 (protein)
chain: B1 chain with R107D, G354P, V355L
modifications: exemplary polypeptide
B5: 110 (protein)
chain: B1 chain with R107D, K314E
modifications: exemplary polypeptide
B6: 298 (protein)
chain: B1 chain with R107D, G354A, G356Y
modifications: exemplary polypeptide
B7: 90 (protein)
chain: B1 chain with R107D, G354A
modifications: exemplary polypeptide
B8: 314 (protein)
chain: B1 chain with R107D, I308V, L333I
modifications: exemplary polypeptide
B9: 278 (protein)
chain: B1 chain with R107D, A192M
modifications: exemplary polypeptide
B10: 117 (protein)
chain: B1 chain with R107D, F108Y
modifications: exemplary polypeptide
B11: 65 (protein)
chain: B1 chain with R107D, N361W
modifications: exemplary polypeptide
B12: 101 (protein)
chain: B1 chain with R107D, M112I
modifications: exemplary polypeptide
B13: 293 (protein)
chain: B1 chain with R107D, I308V, A329V
modifications: exemplary polypeptide
B14: 126 (protein)
chain: B1 chain with R107D, H253E, D278R
modifications: exemplary polypeptide
B15: 93 (protein)
chain: B1 chain with R107D, A329G
modifications: exemplary polypeptide
B16: 277 (protein)
chain: B1 chain with R107D, A192L
modifications: exemplary polypeptide
B17: 100 (protein)
chain: B1 chain with R107D, F109L
modifications: exemplary polypeptide
B18: 279 (protein)
chain: B1 chain with R107D, A192V
modifications: exemplary polypeptide
B19: 104 (protein)
chain: B1 chain with R107D, I184F
modifications: exemplary polypeptide
B20: 102 (protein)
chain: B1 chain with R107D, M112W
modifications: exemplary polypeptide
B21: 109 (protein)
chain: B1 chain with R107D, K314Q
modifications: exemplary polypeptide
B22: 276 (protein)
chain: B1 chain with R107D, G176S
modifications: exemplary polypeptide
B23: 86 (protein)
chain: B1 chain with R107D, A307T
modifications: exemplary polypeptide
B24: 283 (protein)
chain: B1 chain with R107D, V235D
modifications: exemplary polypeptide
B25: 271 (protein)
chain: B1 chain with R107D, M113R
modifications: exemplary polypeptide
B26: 133 (protein)
chain: B1 chain with R107D, A307V
modifications: exemplary polypeptide
B27: 134 (protein)
chain: B1 chain with R107D, N111D
modifications: exemplary polypeptide
B28: 118 (protein)
chain: B1 chain with R107D, M113Q
modifications: exemplary polypeptide
B29: 92 (protein)
chain: B1 chain with R107D, F318M
modifications: exemplary polypeptide

Residue numbers refer to the chain shown, from its start.

The first test is described as follows: OTA detoxification activity assay (specific activity, fluorescence reduction ex/em 390/450 nm). Format: biochemical. To be noted: pH 6.0; SEQ ID NO: 1 = 100%. The method in brief: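 Recombinant enzyme preparation with 200 ng/mL OTA in 100 mM sodium phosphate, at pH 6.0 and pH 7.5, 37° C. Degradation followed as the fall in fluorescence at ex/em 390/450 nm. Specific activity taken from the initial linear slope; one unit degrades 1 μmol OTA per min at a starting OTA of […].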
For B1, the “Specific OTA detoxification activities in % compared to the enzyme of SEQ ID NO: 1, pH 6.0” value is given as 11%.
Still for that read-out and setting: with B2 the figure was 52%; with B3, 51%; with B4, 26%.
Still for that read-out and setting: with B5 the figure was 33%; with B6, 15%.
On the same count and under the same terms, with B7 the figure was 99%; with B8, 71%.
With B9, the “Specific OTA detoxification activities in % compared to the enzyme of SEQ ID NO: 1, pH 6.0” value amounted to 32%.
Same read-out and setting: with B10 the figure was 40%; with B11, 4%.
Still for that read-out and setting: to B12 belongs 82%; to B13, 16%; to B14, 63%.
The same measure, in the same setting: to B15 belongs 20%; to B16, 6%; to B17, 43%.
For the molecule B18, the “Specific OTA detoxification activities in % compared to the enzyme of SEQ ID NO: 1, pH 6.0” value came to 23%.
Still for that read-out and setting: with B19 the figure was 102%; with B20, 50%; with B21, 74%.
On the same count and under the same terms, to B22 belongs 13%; to B23, 4%.
Same read-out and setting: to B24 belongs 29%; to B25, 6%.
With B26, the “Specific OTA detoxification activities in % compared to the enzyme of SEQ ID NO: 1, pH 6.0” value stood at 23%.
As to B27, the “Specific OTA detoxification activities in % compared to the enzyme of SEQ ID NO: 1, pH 6.0” value is 41%.
Turning to B28, the “Specific OTA detoxification activities in % compared to the enzyme of SEQ ID NO: 1, pH 6.0” value was found to be 26%.
On the same count and under the same terms, to B29 belongs 37%.

The test is the same for the next values; noted with them: pH 7.5; SEQ ID NO: 1 = 100%.
Turning to B1, the “Specific OTA detoxification activities in % compared to the enzyme of SEQ ID NO: 1, pH 7.5” value is on record as 22%.
Still for that read-out and setting: to B2 belongs 58%.
Take B3: the “Specific OTA detoxification activities in % compared to the enzyme of SEQ ID NO: 1, pH 7.5” value was determined as 83%.
Same read-out and setting: with B4 the figure was 23%.
B5: the “Specific OTA detoxification activities in % compared to the enzyme of SEQ ID NO: 1, pH 7.5” value is reported as 48%.
On the same count and under the same terms, to B6 belongs 17%; to B7, 162%.
In the case of B8, the “Specific OTA detoxification activities in % compared to the enzyme of SEQ ID NO: 1, pH 7.5” value came to 33%.
As for B9, the “Specific OTA detoxification activities in % compared to the enzyme of SEQ ID NO: 1, pH 7.5” value is listed as 19%.
Same read-out and setting: with B10 the figure was 80%; with B11, 10%; with B12, 89%.
For the molecule B13, the “Specific OTA detoxification activities in % compared to the enzyme of SEQ ID NO: 1, pH 7.5” value was 18%.
On the same count and under the same terms, with B14 the figure was 75%; with B15, 17%.
Take B16: the “Specific OTA detoxification activities in % compared to the enzyme of SEQ ID NO: 1, pH 7.5” value amounted to 14%.
The same measure, in the same setting: with B17 the figure was 28%.
For B18, the “Specific OTA detoxification activities in % compared to the enzyme of SEQ ID NO: 1, pH 7.5” value came to 36%.
Regarding B19, the “Specific OTA detoxification activities in % compared to the enzyme of SEQ ID NO: 1, pH 7.5” value was determined as 71%.
Still for that read-out and setting: to B20 belongs 89%; to B21, 107%.
Same read-out and setting: to B22 belongs 30%; to B23, 9%; to B24, 23%.
On the same count and under the same terms, with B25 the figure was 23%; with B26, 27%.
As to B27, the “Specific OTA detoxification activities in % compared to the enzyme of SEQ ID NO: 1, pH 7.5” value was found to be 52%.
Still for that read-out and setting: with B28 the figure was 22%; with B29, 52%.

These data come from US20240352438A1, “MEANS AND METHODS FOR DETOXIFYING OCHRATOXIN A” (DSM Austria GmbH, priority 2021, published 2024).
